# Experimental data: patent publication US10925971B2, “Methods of treating PRLR positive breast cancer” (Regeneron Pharmaceuticals, Inc., priority 2016, dated 2021)
# B1: H1H6958N2: anti-PRLR antibody, receptor blocking, human IgG1 Fc form of H2M6958N2 of Table 1; HCVR/LCVR SEQ ID NOs 290/298 (antibody, V domains shown)
# VH: QVQLVESGGGVVQPGRSLRLSCGASGFTFRNYGMQWVRQGPGKGLEWVTLISFDGNDKYYADSVKGRFTISRDNSKNTLFLQMNSLRTEDTAVYYCARGGDFDYWGQGTLVTVSS
# VL: DIQMTQSPSSLSASVGDRVTITCRASQDIRKDLGWYQQKPGKAPKRLIYAASSLHSGVPSRFSGSGSGTEFTLTISSLQPEDFATYYCLQHNSYPMYTFGQGTKLEIK
# Biological target: T1, hPRLR-mmH (SEQ ID NO:406) (Homo sapiens, UniProt P16471)
# T1 construct: this experiment was conducted with a truncated form of PRLR (i.e., hPRLR-mmH)
# T1 sequence (P16471 with tags, fused parts or gaps): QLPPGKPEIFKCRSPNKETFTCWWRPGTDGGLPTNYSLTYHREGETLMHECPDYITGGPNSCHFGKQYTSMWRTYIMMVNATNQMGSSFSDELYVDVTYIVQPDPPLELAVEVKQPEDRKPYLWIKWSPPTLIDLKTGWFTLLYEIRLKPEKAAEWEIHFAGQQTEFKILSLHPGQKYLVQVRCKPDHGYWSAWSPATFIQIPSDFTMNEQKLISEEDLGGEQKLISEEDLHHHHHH
# Test: Epitope mapping by hydrogen/deuterium exchange with MALDI-TOF MS
# Assay type: binding
# Experimental: Experiments were conducted to determine the amino acid residues of PRLR with which H1H6958N2 interacts. For this purpose hydrogen/deuterium (H/D) exchange epitope mapping was carried out. A general description of the H/D exchange method is set forth in e.g., Ehring (1999) Analytical Biochemistry 267(2):252-259; and Engen and Smith (2001) Anal. Chem. 73:256A-265A.
# To map the binding epitope(s) of antibody H1H6958N2 on hPRLR via H/D exchange, a construct comprising a recombinant extracellular domain of hPRLR with a C-terminal myc-myc-hexahistidine tag (hPRLR-mmH; SEQ ID NO: SEQ ID NO:406) was buffer exchanged to PBS with a final concentration of 8 mg/mL, and antibody H1H6958N2 was covalently attached to N-hydroxysuccinimide (NHS) agarose beads (GE Lifescience)
# In the ‘on-solution/off-beads’ (on-exchange in solution followed by off-exchange on beads) experiment, the hPRLR was deuterated for 5 min or 10 min in PBS buffer prepared with D2O, and then bound to H1H6958N2 beads through a 2 min incubation. The hPRLR-bound beads were washed with PBS aqueous buffer (prepared with H2O) and incubated PBS buffer for half of the on-exchange time. After the off-exchange, the bound hPRLR was eluted from beads with an ice-cold low pH TFA solution. The eluted hPRLR was then digested with immobilized pepsin (Thermo Scientific) for 5 min. The resulting peptides were desalted using ZipTip® chromatographic pipette tips and immediately analyzed by UltrafleXtreme matrix assisted laser desorption ionization time of flight (MALDI-TOF)-TOF mass spectrometry (MS).
# In the ‘on-beads/off-beads’ (on-exchange on beads followed by off-exchange on beads) experiment, hPRLR was first bound to H1H6958N2 beads and then incubated for 5 min or 10 min in D2O for on-exchange. The following steps (off-exchange, pepsin digestion, and MS analysis) were carried out as described for the ‘on-solution/off-beads’ procedure. The centroid values or average mass-to-charge ratios (m/z) of all the detected peptides were calculated and compared between these two sets of experiments.
# The results are summarized in Table 29 which provides a comparison of the centroid m/z values for all the detected peptides identified by liquid chromatography and MS following the H/D exchange and peptic digest procedure described above. For purposes of the present Example, a positive difference (A) of at least 0.20 m/z in both experiments indicates amino acids protected by antibody binding. Segments meeting this criterion are indicated by bold text and an asterisk (*) in Table 29. [Note that, although this experiment was conducted with a truncated form of PRLR (i.e., hPRLR-mmH; SEQ ID NO: 406), residue numbering in the far left column of Table 29 has been adjusted to correspond to the amino acid sequence of the full-length PRLR protein represented by SEQ ID NO: 404.]
# [1] = hPRLR peptide residues 61-71 of SEQ ID NO: 404, Experiment I 5 min on-/2.5 min off-exchange
# [2] = hPRLR peptide residues 61-71 of SEQ ID NO: 404, Experiment II 10 min on-/5 min off-exchange
# [3] = hPRLR peptide residues 64-71 of SEQ ID NO: 404, Experiment I 5 min on-/2.5 min off-exchange
# [4] = hPRLR peptide residues 64-71 of SEQ ID NO: 404, Experiment II 10 min on-/5 min off-exchange
# [5] = hPRLR peptide residues 64-72 of SEQ ID NO: 404, Experiment I 5 min on-/2.5 min off-exchange
# [6] = hPRLR peptide residues 64-72 of SEQ ID NO: 404, Experiment II 10 min on-/5 min off-exchange
# [7] = hPRLR peptide residues 72-94* of SEQ ID NO: 404 (* = protected by antibody binding), Experiment I 5 min on-/2.5 min off-exchange
# [8] = hPRLR peptide residues 72-94* of SEQ ID NO: 404 (* = protected by antibody binding), Experiment II 10 min on-/5 min off-exchange
# [9] = hPRLR peptide residues 72-95* of SEQ ID NO: 404 (* = protected by antibody binding), Experiment I 5 min on-/2.5 min off-exchange
# [10] = hPRLR peptide residues 72-95* of SEQ ID NO: 404 (* = protected by antibody binding), Experiment II 10 min on-/5 min off-exchange
# [11] = hPRLR peptide residues 96-101* of SEQ ID NO: 404 (* = protected by antibody binding), Experiment I 5 min on-/2.5 min off-exchange
# [12] = hPRLR peptide residues 96-101* of SEQ ID NO: 404 (* = protected by antibody binding), Experiment II 10 min on-/5 min off-exchange
# [13] = hPRLR peptide residues 96-102* of SEQ ID NO: 404 (* = protected by antibody binding), Experiment I 5 min on-/2.5 min off-exchange
# [14] = hPRLR peptide residues 96-102* of SEQ ID NO: 404 (* = protected by antibody binding), Experiment II 10 min on-/5 min off-exchange
# [15] = hPRLR peptide residues 133-147 of SEQ ID NO: 404, Experiment I 5 min on-/2.5 min off-exchange
# [16] = hPRLR peptide residues 133-147 of SEQ ID NO: 404, Experiment II 10 min on-/5 min off-exchange
# [17] = hPRLR peptide residues 134-147 of SEQ ID NO: 404, Experiment I 5 min on-/2.5 min off-exchange
# [18] = hPRLR peptide residues 134-147 of SEQ ID NO: 404, Experiment II 10 min on-/5 min off-exchange
# [19] = hPRLR peptide residues 135-147 of SEQ ID NO: 404, Experiment I 5 min on-/2.5 min off-exchange
# [20] = hPRLR peptide residues 135-147 of SEQ ID NO: 404, Experiment II 10 min on-/5 min off-exchange
# [21] = hPRLR peptide residues 136-147 of SEQ ID NO: 404, Experiment I 5 min on-/2.5 min off-exchange
# [22] = hPRLR peptide residues 136-147 of SEQ ID NO: 404, Experiment II 10 min on-/5 min off-exchange
# [23] = hPRLR peptide residues 137-147 of SEQ ID NO: 404, Experiment I 5 min on-/2.5 min off-exchange
# [24] = hPRLR peptide residues 137-147 of SEQ ID NO: 404, Experiment II 10 min on-/5 min off-exchange
# [25] = hPRLR peptide residues 168-179 of SEQ ID NO: 404, Experiment I 5 min on-/2.5 min off-exchange
# [26] = hPRLR peptide residues 168-179 of SEQ ID NO: 404, Experiment II 10 min on-/5 min off-exchange
# [27] = hPRLR peptide residues 168-180 of SEQ ID NO: 404, Experiment I 5 min on-/2.5 min off-exchange
molecule,measurement,setting,value
B1,epitope of PRLR with which the antibody interacts,delta centroid greater than 0.20 m/z in both experiments,amino acids 72 to 102 of SEQ ID NO: 404
same,"centroid m/z, on-beads/off-beads",[1],1306.50 m/z
same,"centroid m/z, on-solution/off beads",[1],1306.39 m/z
same,Δ (centroid m/z difference),[1],−0.10 m/z
same,"centroid m/z, on-beads/off-beads",[2],1306.38 m/z
same,"centroid m/z, on-solution/off beads",[2],1306.34 m/z
same,Δ (centroid m/z difference),[2],−0.04 m/z
same,"centroid m/z, on-beads/off-beads",[3],1005.05 m/z
same,"centroid m/z, on-solution/off beads",[3],1005.13 m/z
same,Δ (centroid m/z difference),[3],0.07 m/z
same,"centroid m/z, on-beads/off-beads",[4],1005.18 m/z
same,"centroid m/z, on-solution/off beads",[4],1005.13 m/z
same,Δ (centroid m/z difference),[4],−0.05 m/z
same,"centroid m/z, on-beads/off-beads",[5],1136.15 m/z
same,"centroid m/z, on-solution/off beads",[5],1136.16 m/z
same,Δ (centroid m/z difference),[5],0.01 m/z
same,"centroid m/z, on-beads/off-beads",[6],1136.49 m/z
same,"centroid m/z, on-solution/off beads",[6],1136.33 m/z
same,Δ (centroid m/z difference),[6],−0.16 m/z
same,"centroid m/z, on-beads/off-beads",[7],2572.17 m/z
same,"centroid m/z, on-solution/off beads",[7],2573.91 m/z
same,Δ (centroid m/z difference),[7],1.74 m/z
same,"centroid m/z, on-beads/off-beads",[8],2572.12 m/z
same,"centroid m/z, on-solution/off beads",[8],2573.74 m/z
same,Δ (centroid m/z difference),[8],1.62 m/z
same,"centroid m/z, on-beads/off-beads",[9],2703.43 m/z
same,"centroid m/z, on-solution/off beads",[9],2705.49 m/z
same,Δ (centroid m/z difference),[9],2.06 m/z
same,"centroid m/z, on-beads/off-beads",[10],2703.70 m/z
same,"centroid m/z, on-solution/off beads",[10],2705.29 m/z
same,Δ (centroid m/z difference),[10],1.60 m/z
same,"centroid m/z, on-beads/off-beads",[11],870.20 m/z
same,"centroid m/z, on-solution/off beads",[11],870.70 m/z
same,"centroid m/z, on-beads/off-beads",[12],870.20 m/z
same,"centroid m/z, on-solution/off beads",[12],870.71 m/z
same,Δ (centroid m/z difference),[12],0.52 m/z
same,"centroid m/z, on-beads/off-beads",[13],1001.22 m/z
same,"centroid m/z, on-solution/off beads",[13],1001.59 m/z
same,Δ (centroid m/z difference),[13],0.37 m/z
same,"centroid m/z, on-beads/off-beads",[14],1001.14 m/z
same,"centroid m/z, on-solution/off beads",[14],1001.62 m/z
same,Δ (centroid m/z difference),[14],0.48 m/z
same,"centroid m/z, on-beads/off-beads",[15],1786.37 m/z
same,"centroid m/z, on-solution/off beads",[15],1786.59 m/z
same,Δ (centroid m/z difference),[15],0.22 m/z
same,"centroid m/z, on-beads/off-beads",[16],1786.52 m/z
same,"centroid m/z, on-solution/off beads",[16],1786.55 m/z
same,Δ (centroid m/z difference),[16],0.02 m/z
same,"centroid m/z, on-beads/off-beads",[17],1673.29 m/z
same,"centroid m/z, on-solution/off beads",[17],1673.36 m/z
same,Δ (centroid m/z difference),[17],0.07 m/z
same,"centroid m/z, on-beads/off-beads",[18],1673.39 m/z
same,"centroid m/z, on-solution/off beads",[18],1673.50 m/z
same,Δ (centroid m/z difference),[18],0.11 m/z
same,"centroid m/z, on-beads/off-beads",[19],1602.02 m/z
same,"centroid m/z, on-solution/off beads",[19],1602.15 m/z
same,Δ (centroid m/z difference),[19],0.13 m/z
same,"centroid m/z, on-beads/off-beads",[20],1602.04 m/z
same,"centroid m/z, on-solution/off beads",[20],1602.15 m/z
same,Δ (centroid m/z difference),[20],0.11 m/z
same,"centroid m/z, on-beads/off-beads",[21],1502.88 m/z
same,"centroid m/z, on-solution/off beads",[21],1502.85 m/z
same,Δ (centroid m/z difference),[21],−0.03 m/z
same,"centroid m/z, on-beads/off-beads",[22],1502.88 m/z
same,"centroid m/z, on-solution/off beads",[22],1502.79 m/z
same,Δ (centroid m/z difference),[22],−0.09 m/z
same,"centroid m/z, on-beads/off-beads",[23],1373.68 m/z
same,"centroid m/z, on-solution/off beads",[23],1373.78 m/z
same,Δ (centroid m/z difference),[23],0.09 m/z
same,"centroid m/z, on-beads/off-beads",[24],1373.84 m/z
same,"centroid m/z, on-solution/off beads",[24],1373.80 m/z
same,Δ (centroid m/z difference),[24],−0.04 m/z
same,"centroid m/z, on-beads/off-beads",[25],1447.71 m/z
same,"centroid m/z, on-solution/off beads",[25],1447.73 m/z
same,Δ (centroid m/z difference),[25],0.02 m/z
same,"centroid m/z, on-beads/off-beads",[26],1447.78 m/z
same,"centroid m/z, on-solution/off beads",[26],1447.76 m/z
same,Δ (centroid m/z difference),[26],−0.02 m/z
same,"centroid m/z, on-beads/off-beads",[27],1633.66 m/z
same,"centroid m/z, on-solution/off beads",[27],1633.59 m/z
